# Measurements reported in article PMC2315677.
# Read-outs that look alike come from different tables or passages of the source.
# Tests used:
# [1] = target: calreticulin (hamster (endogenous in CHO)) (UniProt Q8K3H7); assay: co-IP
# [2] = target: calreticulin (hamster (endogenous in CHO)) (UniProt Q8K3H7); assay: co-IP; remark: listed apart in the source
# Sequence of UniProt Q8K3H7 (Q8K3H7 18-417): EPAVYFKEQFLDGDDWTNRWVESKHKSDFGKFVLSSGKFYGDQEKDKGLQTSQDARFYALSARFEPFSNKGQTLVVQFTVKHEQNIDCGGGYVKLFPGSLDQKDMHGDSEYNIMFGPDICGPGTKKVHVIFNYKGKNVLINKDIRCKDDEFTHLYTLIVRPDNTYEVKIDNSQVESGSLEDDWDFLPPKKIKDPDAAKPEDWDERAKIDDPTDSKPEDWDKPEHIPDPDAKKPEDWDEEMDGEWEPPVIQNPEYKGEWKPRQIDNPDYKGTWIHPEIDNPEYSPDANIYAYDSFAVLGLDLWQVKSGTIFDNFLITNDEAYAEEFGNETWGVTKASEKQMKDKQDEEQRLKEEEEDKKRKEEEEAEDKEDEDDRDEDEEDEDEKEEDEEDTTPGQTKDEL
substance,measurement,setting,value
"influenza hemagglutinin (HA) wild type, transiently expressed in MI8-5 CHO cells (from UniProt P03437 17-566) (natural protein)",percent bound,[1],16%
same,percent bound,[2],70%
